The record followed here is patent US20210188986A1.

Experiment [1] has as its target human OX40L (recombinant, soluble) (human) (UniProt P23510). As to the kind of experiment: cell-based or functional assay.
In experiment [2] the target is human TNFα (recombinant, soluble) (human) (UniProt P01375). As to the kind of experiment: cell-based or functional assay.
Chain of UniProt P01375 (P01375 77-233 limits assumed): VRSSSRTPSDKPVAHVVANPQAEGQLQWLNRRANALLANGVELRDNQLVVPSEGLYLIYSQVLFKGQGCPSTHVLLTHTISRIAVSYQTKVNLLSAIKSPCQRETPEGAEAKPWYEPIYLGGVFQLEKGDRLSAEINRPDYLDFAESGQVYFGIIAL

Chain of UniProt P23510 (P23510 51-183 limits assumed): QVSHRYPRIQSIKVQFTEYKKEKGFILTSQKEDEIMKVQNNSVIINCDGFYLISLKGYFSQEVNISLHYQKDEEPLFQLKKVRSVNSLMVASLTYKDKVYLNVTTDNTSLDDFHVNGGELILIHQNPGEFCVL

On to monospecific anti-OX40L VHH ALX-0632, for which, in experiment [1], the % inhibition, Jurkat OX40/TNF-NFκB reporter assay, combined hTNFα+OX40L stimulus amounted to 68% and the IC50 (pM), Jurkat OX40/TNF-NFκB reporter assay, combined hTNFα+OX40L stimulus was 3060 pM.
With monospecific anti-TNFα VHH ATN-103, in experiment [2], the % inhibition, Jurkat OX40/TNF-NFκB reporter assay, combined hTNFα+OX40L stimulus turned out to be 66% and the IC50 (pM), Jurkat OX40/TNF-NFκB reporter assay, combined hTNFα+OX40L stimulus turned out to be 387 pM.
